The nature of this series: yeast display, Sf9 membrane polyspecificity reagent, FACS + sequencing; frameworks hold sequencing errors. Summed up: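 Using colony PCR, genes from sorted yeast display clones were amplified, then sequenced on MiSeq at 2 × 250 and filtered by CDR length. The clones had been stained with 10% biotinylated, detergent-solubilized Sf9 membrane reagent for 1 hour at 4 °C and sorted by FACS into low and high (top ~1%) gates on anti-HA and streptavidin fluorescence. Polyreactivity labels come from the gate of origin.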
As to “QVHLVESGGGLVQAGGSLRLSCAASGSSFRYYAMGWYRQAPGKERELVAAISGSGGRTYYADSVKGRFTISRDNEKNNVYLQMNSLKPEDTAVYYCAAQSGYYDSAYGYWGQGTKVTVSS”, the “polyreactivity (PSR sort gate)” value was “high polyreactivity”.

Consider “QVHLVESGGGLVQAGGSLRLSCAASGSTFATNAMGWYRQAPGIERELVAAITDGGSTNYADSVKGRFTISRDNAKNTVYLQMNSLKPEDTAVYYCAADGFKTVLPEYDYWGQGTQVTVSS”, for which the “polyreactivity (PSR sort gate)” value is “low polyreactivity”.

Consider “QVHLVESGGGLVQAGGSLRLSCAASGSTFDHYAMAWYRQAPGKERELVASITLSGGSTYYADSVKGRFTISRDNAKNTVYLQMNSLKPEDTAVYYCAAVVVYPYRLGYDYWGQGTQVTVSS”, for which the “polyreactivity (PSR sort gate)” value is “low polyreactivity”.

As to “QVHLVESGGGLVQAGGSLRLSCAASGSTFDTYAMGWYRQAPGKERELVAAISYRGGNTYYADSVKGRFTISRDNAKNTVYLQMNSLKPEDTAVYYCNAGVSIGRSRRYDYWGQGTQVTVSS”, the “polyreactivity (PSR sort gate)” value is on record as “low polyreactivity”.

Consider “QVHLVESGGGLVQAGGSLRLSCAASGSTFFKNAMGWYRQAAGKERELVAAITWSGDRTYADSVKGRFTISRDNAKYTVYLQMNSLKPEDTAVYYCNVDITGYEDDYWGQGTQVTVSS”, for which the “polyreactivity (PSR sort gate)” value is “low polyreactivity”.

For the sequence “QVHLVESGGGLVQAGGSLRLSCAASGSTFIYNTMGWYRQAPGKERELVATITDSSDSTNYADSVKGRFTITRDNAKNTVYLQMNSLKPDDTAVYYCAADGEVDIATYPSQITDYDYWGQGTQVTVSS”, the “polyreactivity (PSR sort gate)” value is on record as “low polyreactivity”.

With “QVHLVESGGGLVQAGGSLRLSCAASGSTFPRYSMGWYRQAPGTERELVAAITQSGGRTYYADSVKGSFTISRDNAKNTVYLQMNSRKPEDTAVYYFAAEDGLRGNRLYYWGHGTQVTVSS”, the “polyreactivity (PSR sort gate)” value is “high polyreactivity”.

Turning to “QVHLVESGGGLVQAGGSLRLSCAASGSTFPWYARGWYRKAPGKERELVAAISGSSSTTYYADSVKGRFTISRDNAMNTVYLQMNSLKPEDTAVYYCNAVTTSGSGYGYWGQGTQVTVSS”, the “polyreactivity (PSR sort gate)” value is reported as “low polyreactivity”.

As for “QVHLVESGGGLVQAGGSLRLSCAASGSTFRIYSMGWYRQAPGKERELVAGITGNGGSTRYADSVKGRFTISRDNAKNTVYLQMNSLKPEDTAVYYCAARWTRQRYRTSYYSWGQGTQVTVSS”, the “polyreactivity (PSR sort gate)” value is reported as “high polyreactivity”.

As to “QVHLVESGGGLVQAGGSLRLSCAASGSTFTDYTIGWYRQAPGKERELVARIRSRGARTYYADSVKGRFTISRDNAKNTVYLQMNSLKPEDTAVNSCNKRWGCLRASPAYDYWGQGTQVTVSS”, the “polyreactivity (PSR sort gate)” value is “high polyreactivity”.

For “QVHLVESGGGLVQAGGSLRLSCAASGSTFVHYAMGWYRQAPGKERELVADITTGDITNYADSVKGRFTISRDNAKNTVYLQMNSLKQEDTAVYSCNARTRYITSLHQYSLDYWGQGSQVTVSS”, the “polyreactivity (PSR sort gate)” value was “low polyreactivity”.

As for “QVHLVESGGGLVQAGGSLRLSCAASGSTFWGYTMGWYRQAPGKERELVAAISTIGGSTYYADSVKGRFTISRDNAKNTVYLQMNSLKTEDTAVYYCAAYKGKHYKEGYWGQGTQVTVSS”, the “polyreactivity (PSR sort gate)” value is on record as “low polyreactivity”.

Turning to “QVHLVESGGGLVQAGGSLRLSCAASGSTFYYYAMGWYRQAPGKERELVAVITSGGSTNYADSVKGRFTISRDYAKNSVYLQMNSLKPEDTAVYYCNVGPSTYYQYDYWGQGTQVTVSS”, the “polyreactivity (PSR sort gate)” value was “high polyreactivity”.

In the case of “QVHLVESGGGLVQAGGSLRLSCAASGSTIDINAMGWYRQAPGKERELVAAISSGGITNYADSVKGRFTISRDNAKNTVYLQMNSLKPEDSAVYYCATQTYTFRWFGSPGWFDYWGQGTQVTVSS”, the “polyreactivity (PSR sort gate)” value was “low polyreactivity”.

For “QVHLVESGGGLVQAGGSLRLSCAASGSTIRAYAMGWNRQAHVKERELVAAISYSGDSTYYADSVKGRFTISRDNAKNTVYLQMNSLKPEDTAVYYCAADYSYRHYEYDYWGQGTQVSVSS”, the “polyreactivity (PSR sort gate)” value is “low polyreactivity”.

Regarding “QVHLVESGGGLVQAGGSLRLSCAASGSTIRSYAMGWNRQAPGKERELVARIAYSSGGTYYADSVKGRFTISRDNAKNTVYLQMNSLKPEDTAVYYCAKPSPITSYPRFDYWGQGTQVTVSS”, the “polyreactivity (PSR sort gate)” value is “high polyreactivity”.

Take “QVHLVESGGGLVQAGGSLRLSCAASGSTLFPYAMGWYRQAPGKERELVAAISSRGGRTYYADSVKGRFTISRDNAKNTVYLQMNSLKPEVTAVYYCAAGDDYWGQGTEVTVSS”: the “polyreactivity (PSR sort gate)” value is listed as “high polyreactivity”.

For “QVHLVESGGGLVQAGGSLRLSCAASGSTSNYYVKVWYGQAPGKERELVASISSGGSTNYADSVKGRFSISRDNAKNSVYLQKNSLKPEDTAVYYCARRRFTHRRYRFDFWGQGTQVTVSS”, the “polyreactivity (PSR sort gate)” value was “high polyreactivity”.

On to “QVHLVESGGGLVQAGGSLRLSCAASGSTSRTYAMGWNRPQPGKERELVAAISSSGGRTTYADSVKGRFTFSRDNAKNTVSLQMNSLKPEDTAVYYCNARTYSYRGYNYWGQGTQVTVSS”, for which the “polyreactivity (PSR sort gate)” value is listed as “high polyreactivity”.

With “QVHLVESGGGLVQAGGSLRLSCAATGLTFHKYAMGWYRQSPGKERELVAAISSSGGSTYYADSVKGRFTISRDNAKNTVYLQMNSLKPEDTAVYYCATRLPYYTHAGYNYWGQGTQVTVSS”, the “polyreactivity (PSR sort gate)” value was “high polyreactivity”.

As to “QVHLVESGGGLVQAGGSLRLSCAPSGLTFPYNAMGWYRQAPGKESELVAAISRGGGTNYADSVKGRFTISRDNAKNTVYLQMNSLKPEDTAVYYCAAEYATWWGGYDYSGQGTQVTVSS”, the “polyreactivity (PSR sort gate)” value is reported as “low polyreactivity”.

For “QVHLVESGGGLVQAGGSLRLSCAPSGRTFFINAMGWYRQAPGKERELVAAIRVGAGSTYYADSVKGRFTISRDNAKNTVYLQMNSLKPEDTAVYYCAAKRVGSREYYWGQGTQVTVSS”, the “polyreactivity (PSR sort gate)” value is “high polyreactivity”.

As to “QVHLVESGGGLVQAGGSLRLSCASTGRISTYYTMVWYRQAPGKERELVAAISWSGTSTYYADSVKGRFTISRDNAKNTVYLQMNSLKPEDTAVYYCNAYFRPRYGYWGQGTQVTVSS”, the “polyreactivity (PSR sort gate)” value is listed as “high polyreactivity”.

For “QVHLVESGGGLVQAGGSLRLSCDASGSIFSVNVMGWYRQQPGKERELVAAITSGGSTHYADSVKGRFTISRDNAKNTVYLQMNSLKPEDTAVYDCAARVWYYDYWGQGTQVTVSS”, the “polyreactivity (PSR sort gate)” value is reported as “high polyreactivity”.

On to “QVHLVESGGGLVQAGGSLRLSCPASGIIFVPNAMGWYRQAPGKEREFVAAISRSGTSTYYADSVKGRFTISRDNAKNTVYLQMNSLKPEDTAVYYCAKSAYRSYSAFGYWGQGTQVTVSS”, for which the “polyreactivity (PSR sort gate)” value was “high polyreactivity”.

As to “QVHLVESGGGLVQAGGSLRLSCPASGRIFYYYTMGCYRQAPGKERELVAAITSGGSTYYADSVKGRFTISRDNAKNTVYLQMYSLKQEDTAVYYCIAEFDEKYDYWGQGTQVTVSS”, the “polyreactivity (PSR sort gate)” value is given as “low polyreactivity”.

Consider “QVHLVESGGGLVQAGGSLRLSFAASGRTFSTNAMGWYRQAPGKERELVAAISSTGGRTYYADSVKGRFTISRDNAKNTVYLQMNSLKPEDTAVYYCNTKLKGKGEGFDYWGQGTQVTVSS”, for which the “polyreactivity (PSR sort gate)” value was “high polyreactivity”.

On to “QVHLVESGGGLVQAGGSLRLSSAASGITFGWYAMGWYRQAPGKERELVAAIDRGGSTYYADSVKGRFTISRDNAKITVYLQMNSLKPEDTAVYYCAVELRLRYGYDYWGQGTEVTVSS”, for which the “polyreactivity (PSR sort gate)” value was “high polyreactivity”.

For “QVHLVESGGGLVQAGGSLRLSSAPSGLTLETNAMGWSRQAPGKERELVAGITYSGGTTYYADSVKGRFTISRDNAKNTVYLQMNSLKPEDTAVYYCAAHTSTSGHNFWGQGTQVTVSS”, the “polyreactivity (PSR sort gate)” value is listed as “low polyreactivity”.

With “QVHLVESGGGLVQAGGSLRLSSDASGSTFHPYAMGLYRQAPGKERELVAAISWTGGRTYYADSVKGRFTISRDYAKNTVYLQMNRLKREDTAVYYCAARTYGKVGYWGQGTQVTVSS”, the “polyreactivity (PSR sort gate)” value is reported as “high polyreactivity”.

“QVHLVESGGGLVQAGGSLRLSSSASGIIFGRNTMGWYRQAPGKEREMVAAITSSGITYYADSVKGRFTISRDNAKNTVYFQMNSLKPEDTAVYYCYSDWTYADPNEYGYWGQGTQVTVSS”: the “polyreactivity (PSR sort gate)” value is “low polyreactivity”.

Take “QVHLVESGGGLVQAGGSLRLTCAASGGIFHINAMGWYRQAPGKERELVAAITRTTITYADSVKGRFTISRDNAKYTVYLQMNRLKLEDSAVYYCAARDKRTPSGVEITGYDYWGQGSQVTVSS”: the “polyreactivity (PSR sort gate)” value was “low polyreactivity”.

Regarding “QVHLVESGGGLVQAGGSLRLTCAASGSIFAYYTMGWYRQEPGKERELVAAISRTGTSTFYADSVKGRFTISRDNAKNTVDLQMNSLKPEDTSVYYCIAVAPGKYNHWGQGTQVTVSS”, the “polyreactivity (PSR sort gate)” value was “high polyreactivity”.

“QVHLVESGGGLVQAGGSLRLTCAASGSIFPYNAMGWYRQSPGEFVAAISYSSGSTYYADSVQGRFTISRDNAKYTVYLQMNCVIPDVTAVYYCAAGSWYPPSYVWLGRYDYWGQGTQVTVSS”: the “polyreactivity (PSR sort gate)” value is listed as “low polyreactivity”.

For “QVHLVESGGGLVQAGGSLRLTSAASGRIFGRNAMGWYRQAPGKEREFVAAISRSGASRYYADSVKGRFTISRDNAKNTVYLQMNRLKPEDTAVYYCARTTRQSSAYTYSDEYDYWGQGTQVTVSS”, the “polyreactivity (PSR sort gate)” value is on record as “high polyreactivity”.

As for “QVHLVESGGGLVQAGRSLRLICAASGSTFDYYAMGWYRQAPGKERELVAGIDSAGSTNYADSVKGRFTISRDNAKNTVYLQMNSLKTGRYRGLYCNVGKTITTYAFPTFDYWRQGTQVTVSS”, the “polyreactivity (PSR sort gate)” value is “low polyreactivity”.

With “QVHLVESGGGLVQAGRSLRLSCAASGITFVKYAMGCYIQAPGKEMELVATISNSGGSTYYSDSVKGRFTISRDNAKNSVYLQMNSLKPEETAVYYCNALYLVYCDDSSPSLVSEYGYWGQGTQVTVSS”, the “polyreactivity (PSR sort gate)” value was “low polyreactivity”.

Consider “QVHLVESGGGLVQAGVSLRLSCAASGFTFYRNAMGWYRQAPGKERELVAAISSRGGSTYYADSVKGRFTISRYNANNTVYFQMNSLKPEDTAVYYCAAYGNYNEYDYWGPGTQVTVSS”, for which the “polyreactivity (PSR sort gate)” value was “high polyreactivity”.

On to “QVHLVESGGGLVQAGVSLRLSCAASGSIFRINGMGWYRQAPGKERELVAAITRSGGSTFYADSVKGRFTISRDTAKNTVYLQMNSLKPEETAVYYCAAVWYYSTVPARYEYWGQGTQVTVSS”, for which the “polyreactivity (PSR sort gate)” value is listed as “low polyreactivity”.

For “QVHLVESGGGLVQEGGSLLLSCAASGSIFQIYTMGRYRQAPGKERELVAAISSSVSTNYADSVKGRFTISRDNAKNTVYLQMHTLKPEDTAVYYCNRDDYNTADRDASGYWGQGTQVTVSS”, the “polyreactivity (PSR sort gate)” value is listed as “low polyreactivity”.

Regarding “QVHLVESGGGLVQPGGSLRLSCAASGNTFQSYARGWYRQAPRKEREFVAAIRQSGGSTYYAESLKGRFTISRDNSKYSVYLLMKRLKPEDTAVYYCGTGRSRVYNGRGDYWGQGTQVNVSS”, the “polyreactivity (PSR sort gate)” value is “high polyreactivity”.
